Columns and labels:
[1] = system: mouse KRS N-terminal peptide fragments (mF1-mF5); experiment: SPR (Biacore T200) of immobilized N3 IgG against mouse KRS N-terminal peptide fragments; type: binding
Description: (§1) In the same manner as the experimental method described in Example 4-1 above, N3 IgG antibody was immobilized on the chip by using an amine coupling kit (GE Healthcare). Then, the peptides shown in Table 4 above dissolved in PBS solution at corresponding concentrations were allowed to flow for 60 s, and PBS was allowed to flow for 5 min. Then, the binding ability was analyzed by Biacore T200 Evaluation software v2.0 (GE Healthcare).

[2] = system: pulmonary arterial hypertension (PAH) models; experiment: Blood pressure and cardiac output in monocrotaline PAH model; type: in vivo, rat; conditions: for CO / LVEDP / LVESP / RVEDP / RVESP: i.v. twice a week, 3 weeks, n = 5
Description: After three weeks, the rats were anesthetized with isoflurane, and measured for blood flow and pressure by using a high-precision pneumatic measurement system (MPVS cardiovascular pressure and volume system, model name: MPVS Ultra, manufacturer: Millar Instruments). The right ventricular end-systolic pressure (RVESP), right ventricular end-diastolic pressure, left ventricular end-systolic pressure, left ventricular end-diastolic pressure were measured using an exclusive catheter (Mikro-Tip rat pressure catheter, manufacturer: Millar Instruments). The cardiac output was measured using a perivascular blood flow probe (Transonic Flow probes, manufacturer: Millar Instruments), and experimental method thereof was performed by the same method as disclosed in the following literature: Pacher P, Nagayama T, Mukhopadhyay P, Batkai S, Kass D A. Measurement of cardiac function using pressure-volume conductance catheter technique in mice and rats. Nat Protoc 2008; 3(9):1422-34.
The models of PAH, which is a disease having a close relation between immune cell invasion and pathological phenomena, were treated with N3 IgG antibody (1 mpk or 10 mpk) for 3 weeks (i.v., twice a week), and then measured for right ventricular end-systolic pressure (RVESP), right ventricular end-diastolic pressure (RVEDP), left ventricular end-systolic pressure (LVESP), left ventricular end-diastolic pressure (LVEDP), and cardiac output (CO).

[3] = system: human KRS N-terminal peptide fragments (F1-F5); experiment: SPR (Biacore T200) of immobilized N3 IgG against human KRS N-terminal peptide fragments; type: binding
Description: First, N3 IgG antibody was immobilized to Biacore T200 (GE Healthcare) equipped with Series S sensor chip CM5 (GE Healthcare) by using an amine coupling kit (GE Healthcare). Then, the peptides shown in Table 4 below dissolved in PBS solution at corresponding concentrations were allowed to flow for 60 s. Then, PBS was allowed to flow for 5 min. Then, the binding ability was analyzed by Biacore T200 Evaluation software v2.0 (GE Healthcare).

[4] = system: rat KRS N-terminal peptide fragments (rF1-rF5); experiment: SPR (Biacore T200) of immobilized N3 IgG against rat KRS N-terminal peptide fragments; type: binding
Description: as §1

A549 cells = experiment: Transwell cell migration assay (laminin); type: cell-based, human; conditions: 100 nM or 500 nM, 24 h, laminin-coated Transwell
Description: Cell migration was measured using a 24-well Transwell chamber with polycarbonate membrane (8.0 μm pore size, Costar) as disclosed in the prior art (Park, S. G. et al., Human lysyl-tRNA synthetase is secreted to trigger pro-inflammatory response, Proc. Natl. Acad. Sci. USA 102, 6356-6361 (2005)). In the Transwell chamber, the lower well was coated with 10 μg of laminin (in gelatin) and dried with UV. Thereafter, A549 cells were suspended in serum-free RPIM media, and then placed at a concentration of 1×10^5 cells per well in the upper chamber. The chamber was treated with N3 IgG or human mock IgG (control) at 100 nM or 500 nM, followed by incubation for 24 h. Thereafter, the chamber was washed twice with PBS, and treated with 70% MeOH (in PBS) for 30 min. The chamber was again washed twice with PBS, and treated with Hematoxylin solution for 30 min. The chamber was washed three times with DW, and the membrane in the chamber was cut and mounted on the slide glass.

[5] = system: pulmonary arterial hypertension (PAH) models; experiment: Echocardiography in PAH model; type: in vivo, rat; conditions: MCT PAH rats, five animals per group
Description: To induce PAH in seven-week-old SD rats (Orient Bio), 60 mpk of monocrotaline (MCT) was subcutaneously injected. […] All antibodies were i.v. injected twice a week, and sildenafil was orally administered every day.

[6] = system: KRS level in the monocyte/macrophage cell membrane (RAW 264.7 cells); experiment: Western blotting of KRS in membrane and cytosol fractions after LN421 treatment; type: cell-based; conditions: 100 nM, 24 h, laminin 421 1 μg/ml
Description: RAW 264.7 cells (2×10^6 cell) were incubated for 18 hr, treated with 1 μg/ml of each laminin subtype in serum-free DMEM, and then harvested at 0 h, 12 h, and 24 h. RAW 264.7 cell protein was separated into cytosol and membrane fractions by using the ProteoExtract Subcellular Proteome Extraction Kit (Calbiotech, cat #539790). The obtained protein was electrophoresed, transferred onto PVDF membrane (Milipore), and blocked with 3% skim milk. Thereafter, KRS polyclonal antibody (rabbit, Neomics, Co. Ltd. #NMS-01-0005) was added, followed by incubation for 1 h. After the unbound antibodies were washed out, anti-rabbit secondary antibodies (ThermoFisher Scientific, #31460) were added, followed by incubation. After incubation with the secondary antibodies, film sensitization was carried out using ECL reagent as a substrate in a dark room. The sensitized bands were compared with standard molecule markers to identify bands corresponding to KRS sizes. Na+/K+ ATPase (Abcam) and tubulin (Sigma) antibody were used for plasma membrane and cytosol marker identification, respectively. RAW 264.7 cells were treated with laminin 421 (1 μg/ml) and antibody (100 nM), incubated for 24 h, and harvested. […]

[7] = N3 IgG immobilized, peptides in PBS

B1: N3 IgG: IgG converted from N3 scFv; VH SEQ ID NO: 49, VL SEQ ID NO: 51; binds KRS N-terminal region (antibody, V domains shown)
VH: EVQLLESGGGLVQPGGSLRLSCAASGFTFSSYDMSWVRQAPGKGLEWVSAISYDNGNTYYADSVKGRFTISRDNSKNTLYLQMNSLRAEDTAVYYSARMALDFDYWGQGTLVTVSS
VL: QSVLTQPPSASGTPGQRVTISCTGSSSNIGSNYVTWYQQLPGTAPKLLIYDNSNRPSGVPDRFSGSKSGTSASLAISGLRSEDEADYYCASWDDSLSAYVFGGGTKLTVL
B1 was tested, and the “relative binding ability, epitope F3 vs F1 (mouse)” value [1] was “stronger binding ability to epitope F3 than F1”, the “binding to mouse KRS N-terminal epitopes F1-F5 (SPR)” value ([1]; F2 and F4 data not shown) was “bound to epitopes F1, F2, F3, and F4 of human (h), mouse (m), and rat (r) but not epitope F5” and the “change in RVESP” value ([2]; 1 mpk and 10 mpk, PAH models) was “significantly reduced”. The CO ([2]; MCT + N3 Ab 1 mpk) was 74.0 ± 0.9 mL/min, the LVEDP ([2]; MCT + N3 Ab 1 mpk) was 2.6 ± 1.9 mmHg and the LVESP ([2]; MCT + N3 Ab 1 mpk) was 95.8 ± 4.8 mmHg. For the same molecule, the RVEDP ([2]; MCT + N3 Ab 1 mpk) was 1.4 ± 2.2 mmHg, the RVESP ([2]; MCT + N3 Ab 1 mpk) was 45.0 ± 8.1 mmHg and the CO ([2]; MCT + N3 Ab 10 mpk) was 59.8 ± 12.9 mL/min. For the same molecule, the LVEDP ([2]; MCT + N3 Ab 10 mpk) was 4.6 ± 3.9 mmHg, the LVESP ([2]; MCT + N3 Ab 10 mpk) was 93.4 ± 11.3 mmHg and the RVEDP ([2]; MCT + N3 Ab 10 mpk) was 3.8 ± 1.3 mmHg. The RVESP ([2]; MCT + N3 Ab 10 mpk) was 41.2 ± 7.7 mmHg, the “change in LVESP” value ([2]; PAH models, antibody administered group) was “significantly increased” and the “binding to human KRS N-terminal epitopes F1-F5 (SPR)” value [3, 7] was “bound to epitopes F1, F2, F3, and F4, but not epitope F5”. For the same molecule, the “rank of binding ability among human epitopes” value [3, 7] was “the binding ability to epitope F4 was strongest, and the binding ability to F3, F2, and F1 was stronger in that order”, the “main binding site in the KRS N-terminal region” value ([3]; amino acid positions) was “positions 15 to 29” and the “relative binding ability, epitope F3 vs F1 (rat)” value [4] was “stronger binding ability to epitope F3 than F1”. The “binding to rat KRS N-terminal epitopes F1-F5 (SPR)” value ([4]; F2 and F4 data not shown) was “bound to epitopes F1, F2, F3, and F4 of human (h), mouse (m), and rat (r) but not epitope F5”, the “inhibition of cell migration” value (A549 cells) was “significantly inhibited” and the “D-shaped left ventricle finding indicating pressure overload in the right ventricle” value [5] was “not observed”. For the same molecule, the “KRS level in the cell membrane” value [6] was “effectively reduced”.
